These results are taken from the supplement of paper PMC10724198.

The test system of the series is Saccharomyces cerevisiae. Put plainly: protein stability index of tFT-peptide fusion (C-terminal peptide) (PSI (0-1 scale)); higher = more stable (slower turnover). To be noted: temperature: 30 C. As to the method:
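MPS profiling in S. cerevisiae of the yeast C-terminome library: the last 12 aa of each annotated ORF are fused to the C-terminus of a sfGFP-mCherry timer, after a GGGS linker. Cells are FACS-sorted into 8 mCherry/sfGFP bins and deep-sequenced. PSI runs from 0 (unstable) to 1 (stable); wild type and das1Δ backgrounds, two technical replicates each.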

[1] abbreviates: genetic background: das1 deletion.

± gives the standard deviation of the averaged measurements.

Regarding DMEMEAIAAERD [HMF1 C-terminal 12 aa], the protein stability index stood at 0.714 ± 0.03 under setting [1] and 0.706 ± 0.031 (genetic background: wild type).

With DNLKYSLDCDFS [BGL2 C-terminal 12 aa], the protein stability index is, setting by setting: under setting [1], 0.709 ± 0.023; (genetic background: wild type) 0.666 ± 0.0075.

Consider DNRPIYKRFFSS [HXT11 C-terminal 12 aa], for which the protein stability index runs as follows: under setting [1], 0.7072 ± 0.0066; (genetic background: wild type) 0.511 ± 0.018.

On to DNTKESKDVKMN [RTT102 C-terminal 12 aa], for which the protein stability index was found to be 0.6878 ± 0.004 under setting [1] and 0.673 ± 0.081 (genetic background: wild type).

As to DNTTKHSSNVHT [YER079W C-terminal 12 aa], the protein stability index by setting is: under setting [1], 0.668 ± 0.014; (genetic background: wild type) 0.667 ± 0.0093.

In the case of DNVEQRVLKQYM [EMC3 C-terminal 12 aa], the protein stability index runs as follows: under setting [1], 0.6864 ± 0.0062; (genetic background: wild type) 0.651 ± 0.0092.

Regarding DPLYYVYCLHMP [NAT4 C-terminal 12 aa], the protein stability index reads like this: under setting [1], 0.6582 ± 0.0016; (genetic background: wild type) 0.643 ± 0.0089.

Consider DQPFYKSLFSRK [HXT1 C-terminal 12 aa], for which the protein stability index is, setting by setting: under setting [1], 0.7117 ± 0.0036; (genetic background: wild type) 0.685 ± 0.053.

As for DRDGCVNAVLLV [NSA2 C-terminal 12 aa], the protein stability index under setting [1] was 0.701 ± 0.012 and the protein stability index (genetic background: wild type) stood at 0.6768 ± 0.0054.

With DRWLNRKALNKG [BUD21 C-terminal 12 aa], the protein stability index under setting [1] amounted to 0.695 ± 0.031 and the protein stability index (genetic background: wild type) stood at 0.676 ± 0.021.

Sequence DSATLVNVHIKR [SPR3 C-terminal 12 aa] showed a protein stability index under setting [1] of 0.7064 ± 0.0062 and a protein stability index (genetic background: wild type) of 0.7269 ± 0.0019.

In turn, “DSNTGGIIASIF [YKL104W-A C-terminal 12 aa]” gave a protein stability index under setting [1] of 0.702 ± 0.027 and a protein stability index (genetic background: wild type) of 0.696 ± 0.027.

DSSKYSLGNNSS [SUR1 C-terminal 12 aa] yielded a protein stability index under setting [1] of 0.713 ± 0.025 and a protein stability index (genetic background: wild type) of 0.686 ± 0.016.

Consider DTFIPSTLQSVT [YNL089C C-terminal 12 aa], for which the protein stability index reads like this: under setting [1], 0.702 ± 0.026; (genetic background: wild type) 0.678 ± 0.015.

DTVKILTELFNL [SEC53 C-terminal 12 aa]: the protein stability index by setting is: under setting [1], 0.707 ± 0.011; (genetic background: wild type) 0.732 ± 0.062.

DTVPPEKLMKFV [RAX2 C-terminal 12 aa] showed a protein stability index under setting [1] of 0.7111 ± 0.0024 and a protein stability index (genetic background: wild type) of 0.66 ± 0.027.

In the case of DVEELREQLENC [AIM7 C-terminal 12 aa], the protein stability index is 0.692 ± 0.0025 under setting [1] and 0.723 ± 0.018 (genetic background: wild type).

In turn, DVQGICLRNDKK [SLX4 C-terminal 12 aa] registered a protein stability index under setting [1] of 0.684 ± 0.011 and a protein stability index (genetic background: wild type) of 0.651 ± 0.008.

For the sequence DYDEEDPYEDPF [IKI1 C-terminal 12 aa], the protein stability index runs as follows: under setting [1], 0.731 ± 0.042; (genetic background: wild type) 0.6905 ± 0.0059.

EADMKTKLDISD [NBP2 C-terminal 12 aa] came in with a protein stability index under setting [1] of 0.695 ± 0.015 and a protein stability index (genetic background: wild type) of 0.696 ± 0.023.

As for EANFWTAALEYE [THI21 C-terminal 12 aa], the protein stability index reads like this: under setting [1], 0.7334 ± 0.0016; (genetic background: wild type) 0.6857 ± 0.003.

As to EANLKVLNGLEI [YPR148C C-terminal 12 aa], the protein stability index is, setting by setting: under setting [1], 0.687 ± 0.024; (genetic background: wild type) 0.667 ± 0.011.

With EAQLSCNYEPLP [COS10 C-terminal 12 aa], the protein stability index was found to be 0.707 ± 0.021 under setting [1] and 0.673 ± 0.0098 (genetic background: wild type).

With ECAPVPPAVRSY [SDH9 C-terminal 12 aa], the protein stability index was 0.683 ± 0.011 under setting [1] and 0.6797 ± 0.0018 (genetic background: wild type).

Turning to ECYLITILWLHK [TDA2 C-terminal 12 aa], the protein stability index under setting [1] is 0.256 ± 0.031 and the protein stability index (genetic background: wild type) is 0.289 ± 0.0072.

For the sequence EDKEIVDGKVLK [TEF4 C-terminal 12 aa], the protein stability index worked out at 0.663 ± 0.016 under setting [1] and 0.674 ± 0.023 (genetic background: wild type).

Take EDSHYGNAKKVT [FPS1 C-terminal 12 aa]: the protein stability index reads like this: under setting [1], 0.708 ± 0.0097; (genetic background: wild type) 0.688 ± 0.011.

As for EDVQLALNKHMN [YAP1 C-terminal 12 aa], the protein stability index is 0.685 ± 0.01 under setting [1] and 0.69 ± 0.0072 (genetic background: wild type).

Consider EEESTTSENLHF [RSM25 C-terminal 12 aa], for which the protein stability index is 0.699 ± 0.0097 under setting [1] and 0.69 ± 0.025 (genetic background: wild type).

As to EELLNQPPEEQI [GPX1 C-terminal 12 aa], the protein stability index stood at 0.712 ± 0.027 under setting [1] and 0.766 ± 0.093 (genetic background: wild type).

EELRPDTLESEL [REC107 C-terminal 12 aa]: the protein stability index turned out to be 0.683 ± 0.0093 under setting [1] and 0.6742 ± 0.0014 (genetic background: wild type).

As for EEMEEFKKLVMG [MIC19 C-terminal 12 aa], the protein stability index runs as follows: under setting [1], 0.7037 ± 0.0043; (genetic background: wild type) 0.6922 ± 0.00094.

For the sequence EEQRNHLKDLYG [SLU7 C-terminal 12 aa], the protein stability index is 0.6968 ± 0.0037 under setting [1] and 0.702 ± 0.011 (genetic background: wild type).

In the case of EERKDALANNIK [CCS1 C-terminal 12 aa], the protein stability index reads like this: under setting [1], 0.6794 ± 0.0017; (genetic background: wild type) 0.688 ± 0.07.

EEVETVSEHVKV [DPA10 C-terminal 12 aa] showed a protein stability index under setting [1] of 0.6781 ± 0.00078 and a protein stability index (genetic background: wild type) of 0.691 ± 0.038.

With EFLTNSILTRRK [COQ1 C-terminal 12 aa], the protein stability index was 0.721 ± 0.048 under setting [1] and 0.651 ± 0.065 (genetic background: wild type).

As for EFVVQSLRSRNQ [YFR018C C-terminal 12 aa], the protein stability index runs as follows: under setting [1], 0.7231 ± 0.0049; (genetic background: wild type) 0.703 ± 0.035.

Turning to EGEHEQVLENFQ [GUT1 C-terminal 12 aa], the protein stability index reads like this: under setting [1], 0.702 ± 0.014; (genetic background: wild type) 0.676 ± 0.032.

EGFIAKVMCCLD [RFC5 C-terminal 12 aa]: the protein stability index runs as follows: under setting [1], 0.606 ± 0.0065; (genetic background: wild type) 0.599 ± 0.021.

On to EGWNSDNVYKLS [CYC2 C-terminal 12 aa], for which the protein stability index by setting is: under setting [1], 0.7213 ± 0.0026; (genetic background: wild type) 0.598 ± 0.0034.

Take EHDKSPLSRKRQ [SFI1 C-terminal 12 aa]: the protein stability index was found to be 0.708 ± 0.015 under setting [1] and 0.703 ± 0.035 (genetic background: wild type).

On to EHRMLKLILNSG [NTO1 C-terminal 12 aa], for which the protein stability index was determined as 0.694 ± 0.017 under setting [1] and 0.644 ± 0.013 (genetic background: wild type).

On to EIKEMLVTLINK [SRL2 C-terminal 12 aa], for which the protein stability index is 0.6725 ± 0.002 under setting [1] and 0.652 ± 0.028 (genetic background: wild type).

EIVGRYVVETSK [ADH5 C-terminal 12 aa]: the protein stability index was 0.678 ± 0.028 under setting [1] and 0.6821 ± 0.0047 (genetic background: wild type).

As to EKCSYYFLSRAH [YNL017C C-terminal 12 aa], the protein stability index was determined as 0.6866 ± 0.0041 under setting [1] and 0.66 ± 0.023 (genetic background: wild type).

For the sequence EKGIFAGDINSD [COX12 C-terminal 12 aa], the protein stability index is, setting by setting: under setting [1], 0.7005 ± 0.0047; (genetic background: wild type) 0.726 ± 0.029.

In the case of EKKDTEGDVDMD [SSE1 C-terminal 12 aa], the protein stability index by setting is: under setting [1], 0.678 ± 0.0095; (genetic background: wild type) 0.666 ± 0.011.

“EKKRVLNAVCGL [YLR412C-A C-terminal 12 aa]” displayed a protein stability index under setting [1] of 0.69 ± 0.016 and a protein stability index (genetic background: wild type) of 0.658 ± 0.021.

In the case of EKPPKEEPESDI [TIM54 C-terminal 12 aa], the protein stability index by setting is: under setting [1], 0.711 ± 0.032; (genetic background: wild type) 0.666 ± 0.0042.

In the case of EKVRCIKKYQSW [APD1 C-terminal 12 aa], the protein stability index under setting [1] stood at 0.726 ± 0.0064 and the protein stability index (genetic background: wild type) is 0.727 ± 0.034.
